Two molecules from paper PMC8556256 can be followed below.

The test has as its target Flag-tagged PITX2 R115L (mouse). Put plainly: co-IP; 293T cells co-transfected with PITX2-Flag (WT or R115L) and NRF2-HA or YAP1-HA; lysis in 50 mM Tris-HCl pH 7.5, 150 mM NaCl, 1% Nonidet P-40, 0.5% sodium deoxycholate; Flag immunoprecipitation at 4 °C overnight, six washes, blot with anti-HA; relative binding capacity = normalized IP-HA intensity / normalized IP-Flag intensity (ImageJ).

Consider “HA-tagged YAP1 (from UniProt P46938 1-488) (natural protein)”, for which the reduction of relative binding capacity against WT PITX2 came out at 89.1%.

B1: HA-tagged NRF2 (natural protein)
chain: MMDLELPPPGLQSQQDMDLIDILWRQDIDLGVSREVFDFSQRQKDYELEKQKKLEKERQEQLQKEQEKAFFAQFQLDEETGEFLPIQPAQHIQTDTSGSASYSQVAHIPKQDALYFEDCMQLLAETFPFVDDHESLALDIPSHAESSVFTAPHQAQSLNSSLEAAMTDLSSIEQDMEQVWQELFSIPELQCLNTENKQLADTTAVPSPEATLTEMDSNYHFYSSISSLEKEVGNCGPHFLHGFEDSFSSILSTDDASQLTSLDSNPTLNTDFGDEFYSAFIAEPSDGGSMPSSAAISQSLSELLDGTIEGCDLSLCKAFNPKHAEGTMEFNDSDSGISLNTSPSRASPEHSVESSIYGDPPPGFSDSEMEELDSAPGSVKQNGPKAQPAHSPGDTVQPLSPAQGHSAPMRESQCENTTKKEVPVSPGHQKAPFTKDKHSSRLEAHLTRDELRAKALHIPFPVEKIINLPVDDFNEMMSKEQFNEAQLALIRDIRRRGKNKVAAQNCRKRKLENIVELEQDLGHLKDEREKLLREKGENDRNLHLLKRRLSTLYLEVFSMLRDEDGKPYSPSEYSLQQTRDGNVFLVPKSKKPDTKKN
Turning to B1, the reduction of relative binding capacity against WT PITX2 amounted to 53.8%.
